Laboratory results: EP4814000A1
Read-outs that look alike come from different tables or passages of the source.

Legend:
[1] = molecular target: 003m-P215S-ΔF111-1×GCN4t (RSV); assay: flow cytometry, Expi293F cells, mRNA-LNP (RL151); row 003m-P215S-ΔF111-1×GCN4t
[2] = molecular target: RSV B-003m-P215S-1×GCN4t-C486D-C489D (RSV B); assay: flow cytometry, Expi293F cells, Lipofectamine 2000-mRNA; mRNA RQ2
[3] = molecular target: RSV B-003m-P215S-1×GCN4t-D92E (RSV B); assay: as above
[4] = molecular target: 008m-Cys-ΔCys (RSV); assay: flow cytometry, Expi293F cells transfected with the antigen's mRNA
[5] = molecular target: 009m-Cys-ΔCys (RSV); assay: as above
[6] = molecular target: 007m-Cys (RSV); assay: as above
[7] = molecular target: 003m-DS (RSV); assay: as above
[8] = molecular target: 010m-Cys (RSV); assay: as above
[9] = molecular target: 009m-DS (RSV); assay: as above
[10] = molecular target: 007m-Cys-ΔCys (RSV); assay: as above
[11] = molecular target: DS-Cav1 (RSV); assay: as above
[12] = molecular target: 003m-ΔCys (RSV); assay: as above
[13] = molecular target: 009m-Cys (RSV); assay: as above
[14] = molecular target: 010m-Cys-ΔCys (RSV); assay: as above
[15] = molecular target: 008m-Cys (RSV); assay: as above
[16] = molecular target: 007m-DS (RSV); assay: as above
[17] = molecular target: 010m-DS (RSV); assay: as above
[18] = molecular target: 008m-DS (RSV); assay: as above
[19] = molecular target: DS-Cav1-1×GCN4t (RSV); assay: as above
[20] = molecular target: DS-Cav1 (RSV); assay: as above; remark: listed apart in the source
[21] = molecular target: 003m-1×GCN4t (RSV); assay: as above
[22] = molecular target: DS-Cav1-2×GCN4t (RSV); assay: as above
[23] = molecular target: 003m-2×GCN4t (RSV); assay: as above
[24] = molecular target: 003m-P215S-1×GCN4t (RSV); assay: flow cytometry, Expi293F cells, Lipofectamine 2000-mRNA; row 003M-P215S-1×GCNt (ORIG)
[25] = molecular target: wild-type RSV B F (RSV B); assay: flow cytometry, Expi293F cells, Lipofectamine 2000-mRNA; row WT-RQ1
[26] = molecular target: 003m-P215S-1×GCN4t (RSV); assay: flow cytometry, Expi293F cells, Lipofectamine 2000-mRNA; row 003m-P215S-1×GCN4t-opti5
[27] = molecular target: RSV B-003m-P215S-1×GCN4t (RSV B); assay: flow cytometry, Expi293F cells, Lipofectamine 2000-mRNA; mRNA RQ3
[28] = molecular target: RSV B-003m-P215S-1×GCN4t-ori_linker (RSV B); assay: as above
[29] = molecular target: RSV B-003m-P215S-1×GCN4t-C486D-C489D (RSV B); assay: as above
[30] = molecular target: RSV B-003m-P215S (RSV B); assay: as above
[31] = molecular target: RSV B-003m-P215S-1×GCN4t-C102A-C362S (RSV B); assay: as above
[32] = molecular target: RSV B-003m-P215S-1×GCN4t-C155S-C290S (RSV B); assay: as above
[33] = molecular target: RSV B-003m-P215S-1×GCN4t-D92E (RSV B); assay: as above
[34] = molecular target: 003m-P215S-1×GCN4t (RSV); assay: flow cytometry, Expi293F cells, Lipofectamine 2000-mRNA
[35] = molecular target: 003m-P215S-S-3N; assay: as above
[36] = molecular target: 003m-P215S-ΔF111 (RSV); assay: as above
[37] = molecular target: 003m-P215S (RSV); assay: as above
[38] = molecular target: 003m-P215S-ΔF111-S-3N; assay: as above
[39] = molecular target: 003m-P215S-ΔF111-1×GCN4t (RSV); assay: as above
[40] = molecular target: 003m-P215S-1×GCN4t (RSV); assay: flow cytometry, Expi293F cells, Lipofectamine 2000-mRNA; row 003M-P215S-1×GCN4t (ORIG)

AM14-AF488 (antibody) was tested, and the MFI [1] was 821, the MFI [2] was 8080 and the MFI [3] was 792. The MFI [4] was 181000, the MFI [5] was 148000 and the MFI [6] was 610000. The MFI [7] was 10100, the MFI [8] was 333000 and the MFI [9] was 147000. For the same substance, the MFI [10] was 430000, the MFI [11] was 122000 and the MFI [12] was 8380. The MFI [13] was 247000, the MFI [14] was 153000 and the MFI [15] was 258000. The MFI [16] was 144000, the MFI [17] was 107000 and the MFI [18] was 139000. The MFI [19] was 923, the MFI [20] was 108000 and the MFI [21] was 6550. For the same substance, the MFI [22] was 437, the MFI [23] was 434000 and the MFI [24] was 2560. The MFI [25] was 201000, the MFI [26] was 2980 and the MFI [27] was 5060. It also gave an MFI [28] of 182, an MFI [29] of 7590 and an MFI [30] of 353000. For the same substance, the MFI [31] was 4430, the MFI [32] was 47600 and the MFI [33] was 814. For the same substance, the MFI [34] was 5650, the MFI [35] was 127000 and the MFI [36] was 1.52e+06. The MFI [37] was 759000, the MFI [38] was 1.08e+06 and the MFI [39] was 12500. It also gave an MFI [40] of 2560.

In the case of D25-AF488 (antibody), the MFI [1] is reported as 682, the MFI [2] is reported as 8130 and the MFI [3] is reported as 2480. It also gave an MFI [4] of 173000, an MFI [5] of 136000 and an MFI [6] of 229000. It also gave an MFI [7] of 37100, an MFI [8] of 252000 and an MFI [9] of 154000. The MFI [10] was 369000, the MFI [11] was 159000 and the MFI [12] was 16200. For the same substance, the MFI [13] was 199000, the MFI [14] was 136000 and the MFI [15] was 196000. The MFI [16] was 159000, the MFI [17] was 118000 and the MFI [18] was 150000. It also gave an MFI [19] of 1790, an MFI [20] of 145000 and an MFI [21] of 12100. It also gave an MFI [22] of 1170, an MFI [23] of 173000 and an MFI [24] of 3840. For the same substance, the MFI [25] was 132000, the MFI [26] was 4620 and the MFI [27] was 6190. For the same substance, the MFI [28] was 515, the MFI [29] was 7160 and the MFI [30] was 265000. For the same substance, the MFI [31] was 16000, the MFI [32] was 93500 and the MFI [33] was 2110. For the same substance, the MFI [34] was 8630, the MFI [35] was 148000 and the MFI [36] was 1.02e+06. The MFI [37] was 486000, the MFI [38] was 704000 and the MFI [39] was 14700. It also gave an MFI [40] of 3840.
